test system: Saccharomyces cerevisiae; experiment: transcriptional activation domain activity (GFP:mCherry ratio, weighted mean of sorted bins, harmonized to initial dataset scale) (arbitrary fluorescence ratio units); higher = stronger transcriptional activation; conditions: beta-estradiol 1 µM; induction time 4 h
Summary of the method: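 Values are activation activity, found as the read-weighted mean of bin median fluorescence, averaged across barcodes and then mapped linearly onto the initial dataset scale. Barcoded protein tiles fused to an estradiol-inducible synthetic transcription factor were integrated at the URA3 locus of GFP-reporter yeast diploids. Cells were induced for 4 hours at 30 °C with 1 uM beta-estradiol in SC, sorted into 8 bins by GFP:mCherry ratio, and barcode-sequenced, with tiles under 50 reads discarded.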

First: AVAPASTPVATEASPAGAPDAKGKKKEKAAAGANADAAGGKKGKGGAQAAPAT
Second: MATAEPTKKRGRPKKVVLVEESAGNAEAVVAEVVKKTTTKKTSTKAPAAPVTT
The “transcriptional activation domain activity” value of the first is higher: 49500 for the first, 40300 for the second.

Going from “MVLRYRLSRSFPTLFIHVQLVLQSLRMGQVSLCMVVQIVWEYIYFWLLGNIAW” to “ILSPTLFLLFSSSPLPLLFYPHFPFLVLTSYFLLLLYSSVSLFIAFLHSLFLI”, the “transcriptional activation domain activity” value falls from 65600 to 41300.

First: IISGAGSNMERELFYCLQNVRFRGPLLRVILLVLKACWLLKNLWVYWLIVYHR
Second: MSFYFNFYFPICLFFIFIFIVYFLFFIFYLFYFVVYFFLFLLAFIFVFFSVVY
The “transcriptional activation domain activity” value of the first is higher: 45800 for the first, 41700 for the second.

Going from “HMLLRQFLILNLFNLIYLHLFLLLWLLLQQLLYLMILFKFPIPYLLALSYRLS” to “MFAHFFFLRACCCPLPFFFCGYVFLIFSSPFSCFCFLCFWFCCFFFSVCFLLF”, the “transcriptional activation domain activity” value rises from 55300 to 58700.

Compared with “IIFYLIISIIIIIILLLFYYYLLFIIMFFIQDVGCWLLLWCFVGLFELLLQLL”, “TFVRLVMLIAMKVFKFDFLVLSYLATIVYSVCFLTYLCDWHSIFPFAWYHHIY” is higher in “transcriptional activation domain activity” value: 28700 for the first, 47000 for the second.

First: KEKSASERKEEKRQKKMRGEDVSDSEEEKRKRKDKQRGQRVHAVGSGTTSGAS
Second: APSPTPDDDADMKKKDGDGKKDGEDGKKKMKMVTALKNCSFTVPAGTTAALVG
The “transcriptional activation domain activity” value of the first is lower: 35900 for the first, 39400 for the second.

First: MLVRLFFCCYCCCLPVCLSVCLLHVVRCVMLLLTLMLFALLLRTCATLFFLFF
Second: VFTSLHTCRFAAPHLWWLIFSILCLQYLIILEVFVIAMLVFIIGPLIYLFWNI
The “transcriptional activation domain activity” value of the first is higher: 61400 for the first, 42600 for the second.

First: MVSILLFFLSSAFLLTYPYPLLNLALYLLLMFIFSTLYSLTYLLLGFFFFFLA
Second: NGGLSELKERLDEGRASYAYVKVTYSNDKESTREKFILVIWIGSSCKVMRKAK
The “transcriptional activation domain activity” value of the first is higher: 58600 for the first, 42900 for the second.

Compared with “MAIYEAASTPGSSAGSHADKPYHSKRPHRKSRKGCRTCKARKVKCDEVRPSCT”, “RQEREGYEDYEDGSRRKHKNRHSRSPSSDGEDRISRKRKSRRAKDVEDSHANS” is lower in “transcriptional activation domain activity” value: 27900 for the first, 25500 for the second.

Compared with “LSRGSCFVFWIFFSVPPPLFPFIYSYIFFFSFLLWFSVFVSVVFSFFSFWFFF”, “GVDPATKEKKVPSDVLEEPPTLKESLQVLYKYCILCFNLNRKRVVLQFIASFL” is higher in “transcriptional activation domain activity” value: 55700 for the first, 73300 for the second.

Compared with “NPQLFLLGGCLTLVHLLFSSLWLWLVSILFAHDREYPSFVLLSYFMIFYFWTS”, “KTSNDLKYLFTFVEYHVFVSLIRRSLSQLDENKEKHEQMIKLYDDILKNIECI” is lower in “transcriptional activation domain activity” value: 54000 for the first, 24800 for the second.

Compared with “AGGGRKAKATQTGAGASRQKTKTGFQTGRSRRAGNAKTKTNRRAINKPRNGDS”, “MCLTGLWWFVCKFAFSFFLSAGLFFLIHPPLFLILLPLSSFFLFLSLAAASGF” is higher in “transcriptional activation domain activity” value: 28900 for the first, 31400 for the second.

Going from “MLIFYFYFYFYFYLNFFYFFSFVSGWFVLGKDVFVLFLFPFSLSGFSYFVFGY” to “LNCLDLSGIDCCLFFMALRLEVLYSWFLFLAWQLLCTHPALLAFAFGFLGFLI”, the “transcriptional activation domain activity” value rises from 46700 to 51600.

Going from “GGGGGSSRKRARGGESEDEAAGARANGVGNGPSNGKGKEKGKEVVDDGVAVGS” to “MTWRGLSLLLSVLLITWCDPAFFPPVYIQFLFIFIFAWLHLIFLFLIQYLGCI”, the “transcriptional activation domain activity” value falls from 55900 to 37900.

Going from “MFLCLQFRYLFCCGLKHWLRWGDALCLRVLMQGRCCWCGKRKFMLSVSILSWR” to “FSVLFSKLFVWGILPYQTVGVVIQHTCQAVFLFVNIYWTFWRNWPWVQSGFFT”, the “transcriptional activation domain activity” value rises from 53600 to 80100.

Compared with “HSTLLYCHLLLLPFLSSCWALFFLFPLSFGSLFFLFFFFLFLFGAFSFFLSSL”, “KILVQAFKAVFTSPSSAKEADGDGEGADIIENNRRARRALYQVKVKTCVASII” is higher in “transcriptional activation domain activity” value: 39600 for the first, 42000 for the second.

Going from “LLLLLLYFFLFLFLFLFLCSQVLCLGQVDLVDLEKPFVFQSFFEIFPTLLFLP” to “YIATGRGFATTRISFSILYSRFAGPSIYMGMRNLLLLLYATIAIWMPHLIYFW”, the “transcriptional activation domain activity” value rises from 35100 to 48100.

First: ARVLRWCLTMICLTVSALLGRVILFSSAALTLVEILHDDFGFSRNLVLKNLCN
Second: IVQLHLKIHGAWLGRIRCDHCPKFHIEKFCWAACGGPQGLRRIIEHYLKVLNW
The “transcriptional activation domain activity” value of the first is higher: 90400 for the first, 39000 for the second.

First: MGGGVWEPVLDVWLFSFFFSLYTSFFIGFGSLSFFPSYLVCFFFISFPPHFLL
Second: RGATPGRKPAAGGPRESAARAARGRGKGGGTGGEGRGRGRARGRGRTRGKRRT
The “transcriptional activation domain activity” value of the first is lower: 53400 for the first, 54900 for the second.

Compared with “RIAKRRRKDGEPMLYAPDELKEGRWAPKELIKTMARLRRSIQIVLCLSLLSGF”, “MRILFTICRYFPLLFYPFYLWAWVPVHSKELCEKLICPFGQYLCILILLCACW” is lower in “transcriptional activation domain activity” value: 77000 for the first, 56600 for the second.

“LAILMDGLNRILLTHKDDIGIVARVMLAYMTAATRFKRLFISGGGYMLFMPAV” was tested, and the “transcriptional activation domain activity” value was 59800.
